The text below walks through data of patent publication US20100081621, “Crystal structure of the catalytic domain of the viral restriction factor APOBEC3G” (published 2010).

The target in one data set is APOBEC3G D316R/D317R (Homo sapiens, UniProt Q9HC16 Q9HC16:1-384, D316R,D317R). In words: FP; higher binding than wt; 5 mM MgCl2, 37 C. Particulars: tags: Sf9, pAcG2T; label: internal fluorescein-dT. The procedure: Apo3G-DNA binding were monitored by changes in steady state fluorescence depolarization (rotational anisotropy). Reaction mixtures (70 μl), containing an F-labeled DNA ([…]) in buffer (50 mM HEPES, pH 7.3, 1 mM DTT and 5 mM MgCl₂) and varying concentration of 0 to 500 nM Apo3G, were incubated at 37° C. The sequence of the ssDNA is: tta gat gag tgt aa(FdT) gtg ata tat gtg tat. Rotational anisotropy was measured as described previously (Chelico et al., 2006). The fraction of DNA bound to protein was determined as described previously (Bertram et al., 2004).
Chain of APOBEC3G D316R/D317R (Q9HC16 whole entry D316R/D317R, one chain of several): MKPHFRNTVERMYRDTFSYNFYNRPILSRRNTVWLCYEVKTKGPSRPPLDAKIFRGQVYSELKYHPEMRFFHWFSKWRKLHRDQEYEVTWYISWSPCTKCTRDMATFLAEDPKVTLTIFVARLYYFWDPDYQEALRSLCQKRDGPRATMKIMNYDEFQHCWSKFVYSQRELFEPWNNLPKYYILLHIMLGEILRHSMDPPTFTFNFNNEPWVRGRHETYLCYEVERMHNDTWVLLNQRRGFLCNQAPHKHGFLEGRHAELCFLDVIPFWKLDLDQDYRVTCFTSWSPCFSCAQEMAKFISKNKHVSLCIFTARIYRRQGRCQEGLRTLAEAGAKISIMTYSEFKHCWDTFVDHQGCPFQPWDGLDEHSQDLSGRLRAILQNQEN

Another data set concerns the target APOBEC3G-CD2 (Homo sapiens, UniProt Q9HC16 Q9HC16:197-380). In words: about 2-fold decrease in processivity and polarity. The conditions noted are these: tags: GST removed by PreScission protease; label: internal fluorescein-dT. The source says: (§1) FIG. 1B is Apo3G processivity and 3′_{—}5′ deamination bias was characterized on an 85-nt internally F-labeled ssDNA with two CCC motifs 30-nt apart. Single deaminations of the 5′C and 3′C that are spaced by 30-nt on the ssDNA substrate are detected as the appearance of labeled 67- and 48-nt fragments, respectively; double deamination of both Cs on the same molecule results in 30-nt labeled fragment (5′C and 3′C). Substrate usage (%) is less than 15% to maintain single-hit kinetics. The ‘Processivity factor’ is defined as the ratio of the observed fraction of double deaminations (occurring at both 5′C and 3′C on the same molecule) to the predicted fraction of independent double deaminations (Chelico et al., 2006). […] The deamination bias is measured by the ratio of 5′C/3′C deaminations. Deamination patterns are shown using full length Apo3G (lane 2) and Apo3G-CD2 (lanes 3, 4). As a control, no Apo3G or Apo3G-CD2 enzyme was added in lane 1.
(§2) Apo3G (0.024-μM) was allowed to react with 500 nM FdT incorporated ssDNA for […] and subsequently treated with UDG and resolved on 16% UREA PAGE for analysis as described previously¹⁰. Specific activity, measured as fmoles substrate deaminated per pg enzyme per minute, was calculated from the percent deamination of an ssDNA substrate over a range of enzyme concentrations. […]

Data set [1] deals with APOBEC3G full-length (E. coli) (Homo sapiens, UniProt Q9HC16 Q9HC16:1-384). As to the kind of experiment: processive deamination with bias to the 5' CCC. The conditions noted are these: tags: GST, pGEX-6P1, E. coli; label: internal fluorescein-dT.
Chain of APOBEC3G full-length (E. coli) (Q9HC16 whole entry, one chain of several): as the sequence (Q9HC16 whole entry D316R/D317R, one chain of several) above, with R316D, R317D counted along it
From the text: as §1, §2

Chain of APOBEC3G-CD2 (Q9HC16 197-380, one chain of several): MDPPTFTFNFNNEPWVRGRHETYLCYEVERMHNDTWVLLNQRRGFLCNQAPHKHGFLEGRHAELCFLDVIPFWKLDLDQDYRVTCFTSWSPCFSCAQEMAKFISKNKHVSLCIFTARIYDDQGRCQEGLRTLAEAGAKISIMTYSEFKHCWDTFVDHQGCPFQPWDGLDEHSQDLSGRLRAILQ

As for TTAGATGAGTGTAATGTGATATATGTGTAT (ssDNA, [15 (fluorescein-dT)]) [anisotropy ssDNA], the binding signal with APOBEC3G D316R/D317R was 2 fold of wt.

B1: 85-nt processivity ssDNA (ssDNA)
DNA: AAAGAGAAAGTGATACCCAAAGAGTAAAGTTAGATAGAGAGTGATACCCAAAGAGTAAAGTTAGTAAGATGTGTAAGTATGTTAA
modifications: [31 (FdT = fluorescein-dT, written as T)]
B1: the binding result (with APOBEC3G-CD2; in data set [1]) was “binds” each time.
